According to article PMC8105722 (The Journal of Experimental Medicine, 2021):

Target: the molecule itself
Assay: crystal structure

B1: Rv0812 (Mycobacterium tuberculosis bifunctional aminodeoxychorismate lyase / D-amino acid transaminase) (enzyme)
chain: MVVTLDGEILQPGMPLLHADDLAAVRGDGVFETLLVRDGRACLVEAHLQRLTQSARLMDLPEPDLPRWRRAVEVATQRWVASTADEGALRLIYSRGREGGSAPTAYVMVSPVPARVIGARRDGVSAITLDRGLPADGGDAMPWLIASAKTLSYAVNMAVLRHAARQGAGDVIFVSTDGYVLEGPRSTVVIATDGDQGGGNPCLLTPPPWYPILRGTTQQALFEVARAKGYDCDYRALRVADLFDSQGIWLVSSMTLAARVHTLDGRRLPRTPIAEVFAELVDAAIVSDR
notes: also called Mtb Rv0812; WT-Rv0812
stoichiometry N: 2
